According to patent US12570698B2, “Stabilized peptides for covalent binding to target protein” (Dana-Farber Cancer Institute, Inc., priority 2015, dated 2026):
Bridge positions count the residues as written; N and C are the ends. Square brackets hold non-standard residues; d marks the D form. Ends that are not written are not given here. S5 = C=CCCC[C@](C)(N)C(=O)O

What was measured:
Bfl-1 [1] = molecular target: T1, Bfl-1 (Homo sapiens, UniProt Q16548); experiment: Bfl-1:NOXA conjugation assay (disulfide bond formation); assay type: binding; conditions: compared with BCL-XL and MCL-1; non-reducing SDS-PAGE
T1 sequence (Q16548 1-175): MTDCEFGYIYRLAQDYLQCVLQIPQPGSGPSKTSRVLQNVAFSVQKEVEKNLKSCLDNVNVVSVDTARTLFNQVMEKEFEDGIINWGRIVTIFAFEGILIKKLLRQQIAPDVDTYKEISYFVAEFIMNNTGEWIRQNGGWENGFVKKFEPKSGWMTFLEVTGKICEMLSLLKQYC
Experimental: Next, the impact of the C25 in NOXA was investigated. Bfl-1 and NOXA have cysteine residues within 3.5 Å of the Bfl-1 BH3 binding pocket according to modelling. […] To examine the impact of C25 in NOXA on target interaction, we examined the binding of WT NOXA SAHB and NOXA C25S SAHB to Bfl-1 and to a variety of Bfl-1 cysteine mutants. In vitro conjugation assays were performed in order to verify the formation of the disulfide bond. Global reduction of the protein and the NOXA peptides, followed by the introduction of an oxidant such as GSSG led to production of a disulfide bond, shown as a 3 kDa shift on non-reducing SDS-PAGE (FIG. 4A). […] (FIG. 4A).
Bfl-1:NOXA conjugation assay: The conjugation assay was developed to test for disulfide bond formation in a non-reducing environment. 3:1 FITC-stapled peptide:protein molar ratio was combined in the presence of DTT, then diluted and incubated with 1.2 molar excess GSSG. Samples were then run on non-reducing SDS-PAGE, scanned for fluorescence, then stained with Coomassie.

MCL-1ΔNΔC = molecular target: T2, MCL-1ΔNΔC (Homo sapiens, UniProt Q07820); experiment: In vitro covalent conjugation assay; assay type: binding; conditions: oxidizing conditions
T2 construct: MCL-1ΔNΔC (aa 170-327) and BCL-XLΔC (aa 1-212) constructs were cloned into pGEX-4T-1; GST (N, cleaved yes); made in house; host or cells: Escherichia coli BL21(DE3)
Experimental: (§1) After this incubation in a reducing environment, the mixture was diluted 5-fold into 50 mM Tris pH 8.0, 100 mM NaCl, 12 mM GSSG and incubated in the dark for an additional 30 min at RT. […] The gel was rinsed with water, subjected to FITC scan (Typhoon FLA 9500, GE Healthcare) and then Coomassie staining.
(§2) Processing for gel electrophoresis and Coomassie staining was performed as above.

BCL-XLΔC = molecular target: T3, BCL-XLΔC (Homo sapiens, UniProt Q07817); experiment: In vitro covalent conjugation assay; assay type: binding; conditions: oxidizing conditions
T3 construct: MCL-1ΔNΔC (aa 170-327) and BCL-XLΔC (aa 1-212) constructs were cloned into pGEX-4T-1; GST (N, cleaved yes); made in house; host or cells: Escherichia coli BL21(DE3)
Experimental: as §1, §2

GST-MCL-1ΔNΔC = molecular target: T4, GST-MCL-1ΔNΔC (Homo sapiens, UniProt Q07820); experiment: Streptavidin pull-down from anti-apoptotic protein mixture; assay type: binding; conditions: 1:1:1:1 mixture, 1 μM each, biotinylated SAHBs
T4 construct: MCL-1ΔNΔC (aa 170-327) and BCL-XLΔC (aa 1-212) constructs were cloned into pGEX-4T-1; made in house; host or cells: Escherichia coli BL21(DE3)
Excerpt: We next explored how conversion of NOXA and BIM SAHBs to BFL-1 C55-reactive agents influenced the balance between noncovalent and covalent SAHB interactions in the context of an anti-apoptotic protein mixture. First, we generated recombinant MCL-1ΔNΔC, BCL-XLΔC and BFL-1ΔC proteins with differential N-terminal tags (GST, tagless, and His, respectively) so that each could be readily identified upon gel electrophoresis and silver stain (FIG. 13A-B).
Streptavidin Pull-down: Recombinant His-BFL-1ΔC, BCL-XLΔC (tagless) and GST-MCL-1ΔNΔC (1 μM each) were combined and reduced with 3 mM DTT in PBS for 30 min at RT, and then incubated with 1 μM biotinylated SAHBA, SAHBA-3 or vehicle for 4 h at RT. The mixtures were then combined with PBS-washed high-capacity SA agarose (Thermo Fisher Pierce) and incubated with rotation for 2 h at RT. The beads were centrifuged at 3000 rpm, washed twice with NP-40 lysis buffer (1% NP40, 50 mM Tris pH 8.0, 100 mM NaCl, 2.5 mM MgCl2), once with PBS, and then bound protein eluted by boiling in 10% SDS containing 10 mg/mL biotin. Inputs (10%) and eluates were electrophoresed on a 12% Bis-Tris gel and then subjected to silver stain and imaging.

Bfl-1 [2] = molecular target: T1, Bfl-1; experiment: Liposomal release assay (Bfl-1 inhibition of BAX activation); assay type: biochemical
Experimental: The functional impact of the Bfl-1:NOXA disulfide bond formation was evaluated using competitive binding assays and liposomal release assays. […] Bfl-1 alone in the liposomal release assay inhibits activation of BAX and subsequent pore formation in the liposomes. […] (FIG. 5A and FIG. 5B).
Liposomal release assay: Large unilamellar vesicles (LUVs) with lipid composition resembling the mitochondrial outer membrane were generated, encapsulating the fluorescent dye ANTS (8-aminonaphthalene-1,3,6-trisulfonic acid, disodium salt) and the quencher DPX (p-xylene-bis-pyridinium bromide). For measurement of Bfl-1-induced inhibition of BAX, Bfl-1, BAX, tBid activator and liposomes were combined. To test effects of covalently bound Bfl-1:NOXA on BAX activation, Bfl-1 and NOXA SAHB were preincubated as described, then used at the designated concentrations. ANTS release and dequenching due to DPX dissociation (F) was measured over a period of 120 min with an M1000 Infinite plate reader (Tecan) with excitation and emission wavelengths of 355 nm and 520 nm, respectively. Plates were read following liposome lysis with 1% Triton X-100 to determine maximal release (F100). Percent ANTS/DPX release was calculated as [(F−F0)/(F100−F0)]×100.

T4 sequence (Q07820 170-327, stated change not applied): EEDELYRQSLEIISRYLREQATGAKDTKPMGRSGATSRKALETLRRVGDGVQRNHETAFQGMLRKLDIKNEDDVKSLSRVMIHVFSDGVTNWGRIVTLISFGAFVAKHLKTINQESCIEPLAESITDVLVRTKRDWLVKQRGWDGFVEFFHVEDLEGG
T2 sequence (Q07820 170-327, stated change not applied): as above
T3 sequence (Q07817 1-212, stated change not applied): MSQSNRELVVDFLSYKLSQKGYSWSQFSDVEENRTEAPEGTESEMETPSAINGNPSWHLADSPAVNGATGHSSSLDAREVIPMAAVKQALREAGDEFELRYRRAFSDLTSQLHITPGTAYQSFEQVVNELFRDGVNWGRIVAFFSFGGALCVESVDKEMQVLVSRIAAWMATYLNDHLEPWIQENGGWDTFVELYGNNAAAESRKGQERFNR

## NOXA SAHBA: stapled NOXA BH3 (aa 19-43) peptide, i, i+4 all-hydrocarbon staple substituting R31 and K35; SEQ ID NO:124 (AELEVECATQLR[S5]FGD[S5]LNFRQKLL; staple 13-17; not fully specified)
Bfl-1 [1]
  covalent (disulfide) bond formation: only Bfl-1 forms a covalent bond
MCL-1ΔNΔC
  molecular weight shift or FITC labeling: no molecular weight shift or FITC labeling
BCL-XLΔC
  molecular weight shift or FITC labeling: no molecular weight shift or FITC labeling
GST-MCL-1ΔNΔC
  MCL-1ΔNΔC capture in SA pull-down: prominent non-covalent capture of MCL-1ΔNΔC
Bfl-1 [2]; Bfl-1:NOXA disulfide bond formed prior to the assay
  inhibition of anti-apoptotic effects of Bfl-1 on BAX: almost completely erases the effects of Bfl-1
Bfl-1 [2]; NOXA added concurrently with Bfl-1
  inhibition of anti-apoptotic effects of Bfl-1 on BAX: somewhat inhibited
